± gives the standard deviation.
Test: protein stability index of a GFP-peptide fusion (GPS, HEK-293T) (PSI 1-6); higher = more stable
[1] = treatment: DMSO, c terminus: a fixed tail appended
[2] = treatment: MLN4924 1 uM, 8 h, c terminus: a fixed tail appended
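Further: 24-mer peptide tiles fused after GFP, lentivirally expressed, FACS-sorted into six equal bins by GFP/DsRed ratio, decoded by Illumina sequencing, PSI is the read-weighted mean bin number.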

Row | Sequence | protein stability index [1] | protein stability index [2] | protein stability index (treatment: DMSO, c terminus: native) | protein stability index (treatment: MLN4924 1 uM, 8 h, c terminus: native)
1 | GVCMGLVAAACACGFTVAQIITSL [OR10K2] | 3.21 ± 0.34 | 3.04 ± 0.69 |  | 
2 | YKCLECGKAFSQNSGLINHQRIHT [ZNF24] | 4.95 ± 0.23 | 4.57 ± 0.26 |  | 
3 | DQTGKEVADRWYSEIKNYNFQQPG [GLIPR2] | 4.15 ± 0.34 | 3.88 ± 0.31 |  | 
4 | VLDLEARGYIKPHVDSIKFCGATI [ALKBH7] | 2.14 ± 0.26 | 2.15 ± 0.42 |  | 
5 | EPPCEGNTFFCHSNMCINNTLVCN [NETO1] | 2.9 ± 0.24 | 2.85 ± 0.35 |  | 
6 | SPLHLVQMPPVIVETARSHQRSSS [PI4K2A] | 4.22 ± 0.18 | 4.24 ± 0.2 |  | 
7 | SLFSLLIAAAVYIMDTVGNIWVCY [SLC19A2] | 2.94 ± 0.41 | 3.03 ± 0.72 |  | 
8 | HNIFLLGGSSTSERCLLNNSLWKK [NLN] | 2.39 ± 0.13 | 2.24 ± 0.39 |  | 
9 | NIPFFPDLQITDQVALLRLTWSEL [NR2F2] | 2.68 ± 0.45 | 2.12 ± 0.58 |  | 
10 | CDQYSCALTGPVVDIVTGHARLSD [DHCR7] | 3.57 ± 0.25 | 3.71 ± 0.17 |  | 
11 | APFPNVSTSLLTSAGNRTHKARTR [ADAMTSL2] | 4.68 ± 0.25 | 4.64 ± 0.29 |  | 
12 | KSMHREELEKSGHGQAGQRQDPRP [ZBED2] | 5.21 ± 0.13 | 5.2 ± 0.3 |  | 
13 | IKPPCIPNGKENFSGGTSLWQNI [CAMK2D] |  |  | 3.2 ± 0.13 | 3.2 ± 0.21
14 | MTGTPKTQEGAKDLEVDMNKTEVT [ACSBG2] | 5.64 ± 0.35 | 5.68 ± 0.27 |  | 
15 | SSSVETGPSVSEPPGLPRVSAYVD [SPATS1] | 4.77 ± 0.35 | 4.72 ± 0.21 |  | 
16 | RDRLLNRYRQAGSSGPGNSQNSFL [RPAIN] | 3.36 ± 0.32 | 3.56 ± 0.38 |  | 
17 | LVDVRQEQLQGFNTRVRELAQAAG [DNAAF3] | 3.67 ± 0.55 | 3.67 ± 0.29 |  | 
18 | QSCWAFLPDLCLCRVFWWLGDRDR [FBXO39] | 2.2 ± 0.35 | 2.27 ± 0.36 |  | 
19 | ERNEVRNVFKELQIMQGLEHPFLV [STK32A] | 2.71 ± 0.32 | 2.72 ± 0.41 |  | 
20 | CAVMNVVFITILIIALIALSVGQY [CD69] | 3.04 ± 0.34 | 2.47 ± 0.48 |  | 
21 | QLPFCGPNVIDNFLCDLYPLLKLA [OR4A15] | 2.64 ± 0.66 | 2.47 ± 0.25 |  | 
22 | ELAEATWCGISTDMWRSENQNRAY [ZBED1] | 2.84 ± 0.33 | 2.8 ± 0.44 |  | 

Row | Sequence | protein stability index [1] | protein stability index [2] | protein stability index (treatment: DMSO, c terminus: native) | protein stability index (treatment: MLN4924 1 uM, 8 h, c terminus: native)
23 | GPSVSEPPGLPRVSAYVDTTADLD [SPATS1] | 5.16 ± 0.41 | 5.18 ± 0.25 |  | 
24 | AAPLPERNSLSAIFNNVMTLCAML [SLC29A1] | 2.57 ± 0.14 | 2.57 ± 0.31 |  | 
25 | SKNEDRGEEEAESSISSTSNEQLK [ZMYND11] | 5.33 ± 0.63 | 5.49 ± 0.21 |  | 
26 | AEALYQTKFQELQLAAGRHGDDLK [KRT71] | 4.61 ± 0.28 | 4.71 ± 0.13 |  | 
27 | PRRFTFYPCVLATEGFTSGRHYWE [TRIM39] | 2.31 ± 0.51 | 2.19 ± 0.13 |  | 
28 | DGPGGNLAHAFQPGPGIGGDAHFD [MMP1] | 4.95 ± 0.3 | 4.9 ± 0.14 |  | 
29 | PASYTAPIMSGQGLAGFFASVAMI [SLC29A1] | 2.59 ± 0.58 | 2.44 ± 0.48 |  | 
30 | CKGRDHGVLDALHVLEGLFRTDPE [ZSWIM9] | 2.8 ± 0.05 | 2.81 ± 0.26 |  | 
31 | LDKLNFEAINFCRGLGSQASTVTE [ACSBG2] | 3.36 ± 0.5 | 3.71 ± 0.24 |  | 
32 | SRAANQEQRANDLEQIMESVKSKI [CEP70] | 4.44 ± 0.22 | 4.49 ± 0.14 |  | 
33 | HNGKIYISGGVHNGEYVPWLYCYD [KLHL14] | 2.13 ± 0.68 | 2.32 ± 0.48 |  | 
34 | LVAEILPAPGKLLGPCVVGYGIYY [SAT2] | 2.66 ± 0.94 | 2.53 ± 0.44 |  | 
35 | ASALRTRMTGGRPPLPPPDDPATL [DYRK1B] | 4.65 ± 0.13 | 4.87 ± 0.23 |  | 
36 | LALGVSLLCNAITGITLLRVKFKS [PTGFR] | 2.88 ± 0.48 | 2.73 ± 0.37 |  | 
37 | EAVTCGNTEVPARNLYAYIQKLTQ [PTPRD] | 2.81 ± 0.19 | 2.96 ± 0.36 |  | 
38 | AAFQTILTEIYRIVSQKQMSDRRE [RAB11A] | 2.77 ± 0.42 | 2.52 ± 0.36 |  | 
39 | LFVTFLLIYMVTIMGNLLIIVTIM [OR4A15] | 3.06 ± 0.41 | 3.29 ± 0.53 |  | 
40 | TLSGTCLLIANKRQSYDISIVAQV [CARM1] | 2.38 ± 0.69 | 2.68 ± 1.5 |  | 
41 | QVGTLLFRSRSRLTHLSLSRRASE [CDC25B] | 2.93 ± 0.39 | 3 ± 0.13 |  | 
42 | STNGEKTKSPCESNNKKNDEMQEV [SPANXN3] | 5.53 ± 0.16 | 5.41 ± 0.19 |  | 
43 | ERLLAVAERYGLSGSDVLDNVAYA [RAD51] | 2.8 ± 0.23 | 2.95 ± 0.094 |  | 
44 | FIWFVCSLVYYGLTLSAGDLGGSI [SLC22A15] | 3.46 ± 0.52 | 3 ± 0.78 |  | 

Row | Sequence | protein stability index [1] | protein stability index [2] | protein stability index (treatment: DMSO, c terminus: native) | protein stability index (treatment: MLN4924 1 uM, 8 h, c terminus: native)
45 | GSTLAMLQRLKEQQFVIAGVLVED [ZBED1] | 2.22 ± 0.46 | 2.1 ± 0.19 |  | 
46 | SVPIDLQKVDQFDPFTVPTISFIC [PRIM1] | 2.55 ± 0.44 | 2.48 ± 0.74 |  | 
47 | WRNIILMSLLHLGALYGITLIPTC [SCD] | 2.83 ± 0.19 | 2.9 ± 0.42 |  | 
48 | YQILTLEKDQEQVVMNLDSRLLIF [GMCL1] | 2.77 ± 0.67 | 2.66 ± 0.7 |  | 
49 | FSQKHFPEVVQHEEFILLSQGEVE [KLHL12] | 3.44 ± 0.81 | 3.45 ± 0.33 |  | 
50 | MPPQPGIPQQQGMRPPMPPHGQYG [ZNF207] | 4.31 ± 0.2 | 4.43 ± 0.11 |  | 
51 | QVNRRSAKGNTALHDCAESGSLEI [FEM1A] | 4.56 ± 0.049 | 4.26 ± 0.21 |  | 
52 | FRGFPPEDLMPLAAAYGHALEQYE [P3H4] | 2.8 ± 0.36 | 3.08 ± 0.16 |  | 
53 | RKQKQELCEKFDYLYGILEERKNE [TRIM55] | 3.72 ± 0.36 | 3.67 ± 0.54 |  | 
54 | SRLLGAAAGQRSRPSTYYELLGVH [DNAJC4] | 2.54 ± 0.57 | 2.52 ± 0.42 |  | 
55 | GWSKGFIGMHREMQVNPISKRMGP [RHOBTB1] | 2.63 ± 0.32 | 2.61 ± 0.12 |  | 
56 | FHIFRTLEVNRLMGKLLQQPNTYA [PKD2L1] | 2.46 ± 0.68 | 2.5 ± 0.26 |  | 
57 | EVETEGPESADTGDKSESPDEANV [TOR1AIP2] | 5.32 ± 0.41 | 5.58 ± 0.3 |  | 
58 | AVARSPKRPAWGSRRFEAVGWWAL [POMT2] | 2.88 ± 0.97 | 2.49 ± 0.51 |  | 
59 | GVMLTWPDGLMYQKFRNQFLSFSM [TMEM120A] | 2.89 ± 0.98 | 2.69 ± 0.43 |  | 
60 | FNYLHTNCFEITLELSCDKFPPEE [CPN1] | 2.5 ± 0.51 | 2.09 ± 0.42 |  | 
61 | VELARYLVDVRQEQLQGFNTRVRE [DNAAF3] | 2.54 ± 0.36 | 2.77 ± 0.13 |  | 
62 | LSVRSVFFGVFQSFVVLLYILDNE [CLPTM1] | 3.19 ± 0.75 | 2.92 ± 0.55 |  | 
63 | LRKAVLKNLYKLASQCCGVHVISL [PTGFR] | 2.79 ± 0.5 | 2.73 ± 0.99 |  | 
64 | YPEDSSWAAKAPGASSREEPPEEP [SPDEF] | 4.21 ± 0.43 | 4.64 ± 0.51 |  | 
65 | PGTLLKTSPSPERSLLLKYARTPT [TRIM14] | 3.27 ± 0.22 | 3.15 ± 0.12 |  | 
